These results are taken from US20250163183A1 (COAGULANT THERAPEUTICS, published 2025).

The labels stand for the following.
B1: SR16983-R2-P2-D01 (VHH)
VHH: QLQLVESGGGLVQAGGSLRLSCVASGRTFSTYAMGWFRQAPGKEREFVGAIRWDGGSTNYANSVKGRFTISRDNAKNTVYLQVNSLKPEDTAVYYCAARASINYNYANWPYWGRGTQVTVSS
B2: SR16983-R3P2D02 (VHH)
VHH: QLQLVESGGGLVQPGGSLRLSCAASGFTLDGYAIGWFRQAPGKEREGVSSIATSDGSTYYADSVKGRFTISGDDAKNTVYLHMNSLKPEDTAVYYCARGGSLVLRPKYYDYWGQGTQVTVSS
B3: SR16983-R2-P5-D01 (VHH)
VHH: QLQLVESGGGLVQAGGSLRLSCVASGTTFTIEDIGWYRLAPGKQRELVAIISGGNTNYADSVKGRFTISRDNTKNTVYLQMNSLKPEDTAVYYCNGRTKATVKWGRGTQVTVSS
B4: SR16983-R2-P3-E05 (VHH)
VHH: EVQLVESGGGLVQAGGSLRLSCAASGLTASTYVMAWFRQAPGKERDFVSLIDWRGEPTYANSVKGRFTISRDNGKNTVFLQMNSLRPEDTALYYCAVRASPGYVASLYPYWGRGTQVTVSS
B5: SR16983-R2-P4-F03 (VHH)
VHH: QVQLVESGGGLVQAGGSLRLSCAASGRTFGSYVMGWFRQAPGKEREFLAAFSRSTGSTVYADSVKGRFTISKDDAKNTLYLQMNSLKPEDTAVYYCATRASINYNYANWPYWGQGTQVTVSS
B6: SR16983-R3-P5-H06 (VHH)
VHH: B5 VHH with V2L, S31T, M34I, L48V, S57N, A61P, K72R, L79V, T98A
B7: SR16983-R3-P3-C10 (VHH)
VHH: B5 VHH with V2L, F29V, V33A, S57P, K72R, T98A
B8: SR16983-R3-P3-H10 (VHH)
VHH: QVQLVESGGGLVQAGDSLRLSCAASTRTVGTYVMGWFRQAPGKERELVAASSRSTGNTVYPDSVKGRFTVSRDDAKNALYLQMNSLKPEDTAIYYCAARASINYNYANWPYWGQGTQVTVSS
B9: SR16983-R3P2D06 (VHH)
VHH: B5 VHH with V2L, A14P, F29V, F47L, F51S, S57N, K72R, T98A
B10: SR16983-R3-P3-E02 (VHH)
VHH: QLQLVESGGGLVQAGGSLRLSCVLSGNTFGRNVITWYRQPPGKQREFIAMITSSGSTRYADSVKGRFTMSRDTAKNTAFLQMSSLKVEDTAVYYCWTAIAGQGEYWGQGTQVTVSS
B11: SR16983-R4-P1-C12 (VHH)
VHH: QLQLVESGGGLVQAGGSLRLSCAASGSTFSINVFAWYRQGSGEQRELVAFIGRSGTARYGDSVKGRFSISRDNAKKTVYLQMDSLRPEDTAVYYCNLGDYWGQGTQVTVSS
B12: SR16983-R3-P2-D01 (VHH)
VHH: EVQLVESGGGLVQAGGSLRLSCAASGFTFSTKWMYWVRQGPGKGLEWVSTIDASGGSTYYADSVKGRFTISRDNTEKKVYLQMNSLESADTAVYYCARSAGGQFRGRGTQVTVSS
B13: SR16983-R3-P5-C09 (VHH)
VHH: QLQLVESGGGLVQPGGSLRLSCAASGFTFSTKWMYWVRQGPGKGLERVAAIDASGGSTYYADSVKGRFTISRDNSKNTLYLQMNSLESADTAVYYCARSEGGQFRGRGTQVTVSS
B14: SR16983-R3-P3-H05 (VHH)
VHH: B13 VHH with L2V, G16R, S54G, K76E, L79V, Q103L, S115A
B15: SR16983-R3-P2-F07 (VHH)
VHH: QLQLVESGGGLVQAGGSLRLSCAASGTTFDMNSMGWYRQAPGFKRDLVATISIGGDTNYADSVKGRFTISRDNAKNTVYMQMNSLKPEDTAVYYCNAERIWPNRRSFWGQGTQVTVSS
B16: SR16983-R2-P5-A12 (VHH)
VHH: QVQLVESGGGLVEAGGSLRLSCAASGRTFSSGALGWFRQAPGKEREFVATIRWSDERKQYSEFVKGRFTISRDSAKNTVYLQMNNLQPEDTAVYYCRSTVGNVLYWGQGTQVTVSS
B17: SR16983-R2-P4-E03 (VHH)
VHH: B16 VHH with E13Q
B18: SR16983-R2-P2-F02 (VHH)
VHH: QLQLVESGGGLVQAGGSLRLSCAASGTTFSFVYMGWYRQAPGNQRDLVARISSDGSTNYADSVKGRFTISRDNAKNTVYLQMNSLRPEDTARYYCFYNGHLNKWGQGTQVTVSS
B19: SR16983-R2-P2-F07 (VHH)
VHH: B18 VHH with T27S, V32N, D54G, S56I, R71G, N76D, R86K, H100Y
B20: SR16983-R2-P2-H04 (VHH)
VHH: B18 VHH with L2V, Y37F, R71G, R86K, Y94F, G99A
B21: SR16983-R3-P2-G01 (VHH)
VHH: B18 VHH with T27S, V32N, D54G, S56I, R71G, R86K, H100Y, Q106R
B22: SR16983-R2-P4-E06 (VHH)
VHH: QLQLVESGGDLVQAGGSLRLSCAASGFTLDDYAIGWFRQAPGKEREGVSCIASSDGSTYYADSVKGRFTISTDNAKNTVYLQMNSLKPEDTAVYYCARGGLLLPKPELFDSWGQGTQVTVSS
B23: SR16983-R3-P5-F04 (VHH)
VHH: B22 VHH with D10G, D110E, S111Y
B24: SR16983-R3-P3-A08 (VHH)
VHH: EVQLVESGGGLVQAGGSLRLSCAASGRTFVGTYVMGWFRQAPGKAREFVAASSRSTGNTVYLDSVKGRFTVSRDDAKNTLYLQMNSLKPEDTAVYYCAARASINYNAANWPYWGQGTQVTVSS
B25: SR16983-R2-P3-B05 (VHH)
VHH: B5 VHH with V2L, A14P, F29V, F51N, S57N, K72R
B26: SR16983-R3-P5-F03 (VHH)
VHH: B8 VHH with D16G, T26G, V33A, M34I, L47F, S51F, V70I, A78T, I93V
B27: SR16983-R4-P1-C05 (VHH)
VHH: B5 VHH with V2L, E46A, L48V, A49G, F51A, S57T, A61L, K72R, T98A
B28: SR16983-R3-P4-E06 (VHH)
VHH: QLQLVESGGGLVQAGGSLRLSCAASGRTVGSYAVAWFRQAPGKERELLAASSRSTGNTVYADSVKGRFTIARDDAKNTLYLQMNSLKPEDTAVYYCAARASINYNYANWPYWGQGTQVTVSS
B29: SR16983-R3-P3-E04 (VHH)
VHH: B5 VHH with L48V, F51A, S57N, A61P, K72R, T98A
B30: SR16983-R2-P4-D07 (VHH)
VHH: B5 VHH with F29I, L48V, A49V, S57H, T58I, V59S, K72R, T98A
B31: SR16983-R4-P1-A05 (VHH)
VHH: B10 VHH with Q1E, L2V, G16E, N27S, S53T, S56N, S84N, V87L
B32: SR16983-R3P2H10 (VHH)
VHH: B13 VHH with S54G, K76E, L79V, Q103L, S115A

Residue numbers refer to the chain shown, from its start.

For one test, the target named is T1, human protein C (PC) zymogen (human, UniProt P04070 43-197; P04070 200-461).
T1 construct: Bought
T1 sequence (P04070 43-197, chain 1 of 2): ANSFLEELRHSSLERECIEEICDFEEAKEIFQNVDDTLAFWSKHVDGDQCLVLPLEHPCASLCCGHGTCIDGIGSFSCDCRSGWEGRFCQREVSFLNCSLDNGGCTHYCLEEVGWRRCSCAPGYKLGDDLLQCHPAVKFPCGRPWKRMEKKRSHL
T1 sequence (P04070 200-461, chain 2 of 2): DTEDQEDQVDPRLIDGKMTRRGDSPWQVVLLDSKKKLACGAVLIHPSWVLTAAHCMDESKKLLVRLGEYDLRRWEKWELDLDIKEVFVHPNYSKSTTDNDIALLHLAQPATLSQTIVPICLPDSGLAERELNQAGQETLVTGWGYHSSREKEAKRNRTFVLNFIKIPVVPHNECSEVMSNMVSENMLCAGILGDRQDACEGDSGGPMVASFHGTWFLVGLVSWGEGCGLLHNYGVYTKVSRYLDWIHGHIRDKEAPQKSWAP
The test is described as follows: ELISA screen, PC-coated wells, OD450, n=2 [Continued]. (In general: In an ELISA, binding on a coated surface is turned into a signal by an enzyme label.)
For the molecule B1, the binding result is reported as “no binding”.

As to B2, the binding result is recorded as “no binding”.

Turning to B3, the binding result was “no binding”.

In the case of B4, the binding result is reported as “no binding”.

As for B5, the binding result is “no binding”.

As for B6, the binding result is reported as “no binding”.

In the case of B7, the binding result was “no binding”.

In the case of B8, the binding result is recorded as “no binding”.

With B9, the binding result is recorded as “no binding”.

B10: the binding result is “no binding”.

With B11, the binding result was “no binding”.

The next test deals with T2, human APC-PPACK (active site-blocked APC) (human, UniProt P04070 43-461, active site bound by the tripeptide inhibitor Phe-Pro-Arg-chloromethylketone (PPACK)).
T2 construct: Bought (Haematologic Technologies)
T2 sequence (P04070 other isoform, or with tags, fused parts or gaps): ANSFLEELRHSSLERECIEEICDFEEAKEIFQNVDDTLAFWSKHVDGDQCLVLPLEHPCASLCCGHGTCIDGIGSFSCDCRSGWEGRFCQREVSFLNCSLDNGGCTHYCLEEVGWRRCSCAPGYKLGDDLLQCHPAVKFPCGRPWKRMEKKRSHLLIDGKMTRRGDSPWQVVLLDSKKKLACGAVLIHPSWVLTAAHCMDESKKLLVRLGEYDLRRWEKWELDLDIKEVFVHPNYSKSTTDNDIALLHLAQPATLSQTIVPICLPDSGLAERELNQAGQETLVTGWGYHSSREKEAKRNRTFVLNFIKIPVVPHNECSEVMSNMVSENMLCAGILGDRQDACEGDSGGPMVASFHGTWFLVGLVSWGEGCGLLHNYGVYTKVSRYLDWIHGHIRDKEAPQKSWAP
The test is described as follows: ELISA.
Consider B12, for which the binding result was “binds”.

With B13, the binding result is recorded as “binds”.

On to B14, for which the binding result is reported as “binds”.

Turning to B15, the binding result was “binds”.

Take B1: the binding result is listed as “binds”.

B2: the binding result was “binds”.

Regarding B16, the binding result is given as “binds”.

As to B17, the binding result is “binds”.

As to B18, the binding result is recorded as “binds”.

As to B19, the binding result is listed as “binds”.

Take B20: the binding result is “binds”.

B21: the binding result is “binds”.

As to B22, the binding result was “binds”.

With B23, the binding result is given as “binds”.

B24: the binding result is reported as “binds”.

Regarding B3, the binding result is “binds”.

As for B4, the binding result is recorded as “binds”.

On to B25, for which the binding result is reported as “binds”.

In the case of B26, the binding result is listed as “binds”.

On to B27, for which the binding result is on record as “binds”.

On to B5, for which the binding result was “binds”.

On to B6, for which the binding result is reported as “binds”.

In the case of B7, the binding result is listed as “binds”.

As to B28, the binding result is on record as “binds”.

With B29, the binding result was “binds”.

Take B8: the binding result is “binds”.

In the case of B30, the binding result is “binds”.

As to B9, the binding result is “binds”.

On to B10, for which the binding result was “binds”.

B31: the binding result is recorded as “binds”.

In the case of B11, the binding result was “binds”.

The target of a further test is T1, human protein C (PC) zymogen. The test is described as follows: ELISA screen, PC-coated wells, OD450, n=2.
As for B12, the binding result is “no binding”.

With B32, the binding result is “no binding”.

Turning to B13, the binding result is “no binding”.

Consider B14, for which the binding result is “no binding”.

Regarding B15, the binding result is reported as “no binding”.

On to B16, for which the binding result is recorded as “no binding”.

Regarding B17, the binding result was “no binding”.

As to B18, the binding result was “no binding”.

Take B19: the binding result was “no binding”.

Consider B20, for which the binding result is listed as “no binding”.

Take B21: the binding result was “no binding”.

Turning to B22, the binding result is reported as “no binding”.

As for B23, the binding result is given as “no binding”.

B24: the binding result is given as “no binding”.

For the molecule B25, the binding result is “no binding”.

As to B26, the binding result was “no binding”.

Regarding B27, the binding result was “no binding”.

On to B28, for which the binding result was “no binding”.

In the case of B29, the binding result is given as “no binding”.

Take B30: the binding result was “no binding”.

In the case of B31, the binding result is reported as “no binding”.
